{
  "source": "patent US20150252074A1",
  "about": "“Antagonist for (Pro)Renin Receptor for the Treatment of Hypertension and Diabetes” (priority 2012, published 2015)",
  "molecules": {"B1": {"name": "mouse prorenin: activating ligand of PRR, infused ICV to induce a pressor response (protein)", "chain": "LPTRTATFERIPLKKMPSVREILEERGVDMTRLSAEWGVFTKRPSLTNLTSPVVLTNYLNTQYYGEIGIGTPPQTFKVIFDTGSANLWVPSTKCSRLYLACGIHSLYESSDSSSYMENGSDFTIHYGSGRVKGFLSQDSVTVGGITVTQTFGEVTELPLIPFMLAKFDGVLGMGFPAQAVGGVTPVFDHILSQGVLKEEVFSVYYNRGSHLLGGEVVLGGSDPQHYQGNFHYVSISKTDSWQITMKGVSVGSSTLLCEEGCAVVVDTGSSFISAPTSSLKLIMQALGAKEKRIEEYVVNCSQVPTLPDISFDLGGRAYTLSSTDYVLQYPNRRDKLCTLALHAMDIPPPTGPVWVLGATFIRKFYTEFDRHNNRIGFALAR"}, "B2": {"name": "mouse renin: mouse renin protein infused ICV to induce a pressor response (protein, UniProt P06281 72-402, looked up)", "Renin-1": "SPVVLTNYLNTQYYGEIGIGTPPQTFKVIFDTGSANLWVPSTKCSRLYLACGIHSLYESSDSSSYMENGSDFTIHYGSGRVKGFLSQDSVTVGGITVTQTFGEVTELPLIPFMLAKFDGVLGMGFPAQAVGGVTPVFDHILSQGVLKEEVFSVYYNRGSHLLGGEVVLGGSDPQHYQGNFHYVSISKTDSWQITMKGVSVGSSTLLCEEGCAVVVDTGSSFISAPTSSLKLIMQALGAKEKRIEEYVVNCSQVPTLPDISFDLGGRAYTLSSTDYVLQYPNRRDKLCTLALHAMDIPPPTGPVWVLGATFIRKFYTEFDRHNNRIGFALAR"}},
  "key": {"[1]": {"target": "T1, (pro)renin receptor (PRR) (Mus musculus, UniProt Q9CYN9)", "T1 construct": "intracerebroventricular (ICV) cannula for infusion of mouse prorenin (100 ng/ul), PR10, or PR20; from tissue; host or cells: brain of conscious C57Bl/6J mice (in vivo, ICV infusion)", "T1 sequence (Q9CYN9 18-350)": "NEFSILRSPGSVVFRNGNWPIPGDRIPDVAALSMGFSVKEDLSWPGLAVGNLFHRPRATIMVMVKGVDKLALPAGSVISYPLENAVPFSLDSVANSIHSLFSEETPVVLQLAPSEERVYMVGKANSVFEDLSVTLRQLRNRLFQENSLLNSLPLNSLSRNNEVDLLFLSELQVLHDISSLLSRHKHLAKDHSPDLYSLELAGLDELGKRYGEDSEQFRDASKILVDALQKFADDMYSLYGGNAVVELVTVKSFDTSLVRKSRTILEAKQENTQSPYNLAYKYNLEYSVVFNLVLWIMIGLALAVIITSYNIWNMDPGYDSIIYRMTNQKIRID", "test": "ICV infusion of PRR antagonist peptides against the prorenin-induced pressor response, telemetric BP recording", "type": "in vivo, C57BI/6J mice", "conditions": "for effect on prorenin (ICV) induced pressor response (in words): ICV administration, C57BI/6J mice; for ΔMAP (prorenin-induced pressor response in peptide-infused mice): ICV infusion, peptide 45 ng/u1, mouse prorenin 100 ng/ul, vs. prorenin, N=5/group", "experimental": "C57BI/6J mice (N=5/group) were each implanted with a telemetric probe for BP recording and an intracerebroventricular (ICV) cannula for infusion of mouse prorenin (100 ng/ul), PR10, or PR20 (45 ng/u1) at 0.3 ul/minute for 10 minutes. Mouse prorenin infusion increased the BP (mmHg) in WT mice (ΔMAP: 31.3±1.1); however, the prorenin-induced pressor response was abolished in either PR10 (ΔMAP: 16.9±4.4 vs. prorenin) or PR20 (ΔMAP: 12.7±0.5 vs. prorenin) infused mice."}, "[2]": {"tested_on": "Ang II type 1 receptor (AT1R)", "test": "ICV losartan blockade of the pressor response induced by prorenin or renin", "type": "in vivo, mice", "conditions": "losartan 10 ug/ul ICV at 0.3 ul/minute for 10 minutes"}, "[3]": {"target": "(pro)renin receptor (PRR) in mouse brain sections (mouse) (UniProt Q9CYN9)", "sequence (Q9CYN9 18-350)": "as above", "test": "cell-based or functional assay"}, "[4]": {"target": "T2, (pro)renin receptor (PRR) in mouse brain sections (mouse, UniProt Q9CYN9 18-350)", "T2 construct": "whole, on cells; Endogenous receptor in mouse brain tissue, not a recombinant construct", "T2 sequence (Q9CYN9 18-350)": "as above", "test": "FITC-labelled peptide, fluorescence microscopy on mouse brain sections", "experimental": "In order to determine which residues of the PR20 antagonist peptide are involved in binding PRR, an alanine replacement assay was performed. A series of peptides comprising a single alanine substitution at each of the 19 amino acid positions were generated. Each of the 19 alanine substituted peptides and the PR20 peptide were labeled with FITC. Using fluorescent microscopy, each peptide was examined for binding to PRR in mouse brain sections."}, "[5]": {"tested_on": "WT mice", "test": "Pressor response to ICV infusion of mouse prorenin or mouse renin in wildtype (WT) mice, telemetric BP recording", "type": "in vivo", "conditions": "100 ng/ul at 0.3 ul/minute for 10 minutes ICV, N=5/group", "experimental": "(§1) FIG. 6 is a series of graphs illustrating the pressor response to intracerebroventricular (ICV) infusion of carbachol (FIG. 6A), Ang II (FIG. 6B), renin (FIG. 6C), and prorenin (FIG. 6D) in wild-type (WT) and Nefh-PRR mice. WT and Nefh-PRR mice were implanted with telemetric transmitters and ICV cannula. Two weeks after recovery, mice were ICV infused (0.3μl/min) with carbachol (100 ng/μl), Ang II (100 ng/μl), Ang II (100 ng/μl)+losartan (10 μg/μl), mouse renin (100 ng/μl), mouse prorenin (100 ng/μl), or mouse prorenin (100 ng/μl)+losartan (10 μg/μl) over 10 minutes. Blood pressure (BP) was recorded in conscious freely moving mice. *P<0.05 vs. WT.\n(§2) Neuron-specific PRR knockout mice (Nefh-PRR) and wildtype (WT) littermates (N=5/group) were each implanted with a telemetric probe for blood pressure (BP) recording and an intracerebroventricular (ICV) cannula for infusion of mouse prorenin (100 ng/ul), mouse renin (100 ng/ul), or an Ang II type 1 receptor (AT1R) blocker (losartan, 10 ug/ul) at 0.3 ul/minute for 10 minutes. Mouse prorenin infusion increased the BP (mmHg) in WT mice (ΔMAP: 41±5); however, the prorenin induced pressor response was abolished in Nefh-PRR mice (ΔMAP: 5±1)."}, "[6]": {"tested_on": "Nefh-PRR mice", "test": "Pressor response to ICV infusion of mouse prorenin or mouse renin in neuron-specific PRR knockout mice (Nefh-PRR)", "type": "in vivo", "conditions": "100 ng/ul at 0.3 ul/minute for 10 minutes ICV, N=5/group", "experimental": "as §1, §2"}},
  "note": "Entries after “also recorded” stand apart in the source; their conditions may differ. Where no end group is shown, it is not given here.",
  "data": [
    {"molecule": "IFDNIISQGVLKEDVF (PRR antagonist peptide (PR10))", "values": [
      {"measurement": "effect on prorenin (ICV) induced pressor response (in words)", "setting": "[1]", "value": "abolished; also recorded: significantly reduced"},
      {"measurement": "ΔMAP (prorenin-induced pressor response in peptide-infused mice)", "setting": "[1]; 0.3 ul/minute for 10 minutes", "value": "16.9±4.4", "unit": "mmHg"}
    ]},
    {"molecule": "LPTDTTTFKRIFLKRMPSI (PRR antagonist peptide (PR20))", "values": [
      {"measurement": "effect on prorenin (ICV) induced pressor response (in words)", "setting": "[1]", "value": "abolished; also recorded: significantly reduced"},
      {"measurement": "ΔMAP (prorenin-induced pressor response in peptide-infused mice)", "setting": "[1]; 0.3 ul/minute for 10 minutes", "value": "12.7±0.5", "unit": "mmHg"}
    ]},
    {"molecule": "CCCCc1nc(Cl)c(CO)n1Cc1ccc(-c2ccccc2-c2nn[nH]n2)cc1", "note": "[losartan]", "values": [
      {"measurement": "effect on pressor response induced by prorenin or renin (in words)", "setting": "[2]", "value": "completely blocked"}
    ]},
    {"molecule": "mouse prorenin (from UniProt P06281 22-402) (ligand)", "values": [
      {"measurement": "pressor response to ICV mouse prorenin in WT mice (ΔMAP)", "setting": "[3]", "value": 41, "unit": "mmHg"},
      {"measurement": "pressor response to ICV mouse prorenin in neuron-specific PRR knockout (Nefh-PRR) mice (ΔMAP)", "setting": "[3]", "value": 5, "unit": "mmHg"}
    ]},
    {"molecule": "LPTDTTTFKRIFLKRMPSI (also: FITC label, site not given here, also called PR20 antagonist peptide)", "note": "[PR20 peptide labeled with FITC]", "values": [
      {"measurement": "binding result", "setting": "[4]", "value": "binds"}
    ]},
    {"molecule": "B1", "values": [
      {"measurement": "ΔMAP (increase of BP by mouse prorenin infusion alone)", "setting": "[1]; ICV mouse prorenin 100 ng/ul, 0.3 ul/minute for 10 minutes, WT (C57BI/6J) mice", "value": "31.3±1.1", "unit": "mmHg"},
      {"measurement": "ΔMAP (pressor response to ICV infusion)", "setting": "[5]", "value": "41±5", "unit": "mmHg"},
      {"measurement": "ΔMAP (pressor response to ICV infusion)", "setting": "[6]", "value": "5±1", "unit": "mmHg"}
    ]},
    {"molecule": "B2", "values": [
      {"measurement": "ΔMAP (pressor response to ICV infusion)", "setting": "[5]", "value": "31±5", "unit": "mmHg"},
      {"measurement": "ΔMAP (pressor response to ICV infusion)", "setting": "[6]", "value": "27±2", "unit": "mmHg"}
    ]}
  ]
}
